Measured values taken from patent EP2014310A2 (Dyax Corporation, dated 2009).
Read-outs that look alike come from different tables or passages of the source. Ends that are not written are not given here.

Assays:
[1] = target: T1, human KDR-Fc fusion (R&D Systems #357-KD-050) (human, UniProt P35968 20-764); experiment: phage binding screen on KDR-Fc; class legend in paragraph 246
T1 construct: bought

[2] = target: T1, human KDR-Fc fusion (R&D Systems …); experiment: as above; remark: listed apart in the source

T1 sequence (P35968 20-764): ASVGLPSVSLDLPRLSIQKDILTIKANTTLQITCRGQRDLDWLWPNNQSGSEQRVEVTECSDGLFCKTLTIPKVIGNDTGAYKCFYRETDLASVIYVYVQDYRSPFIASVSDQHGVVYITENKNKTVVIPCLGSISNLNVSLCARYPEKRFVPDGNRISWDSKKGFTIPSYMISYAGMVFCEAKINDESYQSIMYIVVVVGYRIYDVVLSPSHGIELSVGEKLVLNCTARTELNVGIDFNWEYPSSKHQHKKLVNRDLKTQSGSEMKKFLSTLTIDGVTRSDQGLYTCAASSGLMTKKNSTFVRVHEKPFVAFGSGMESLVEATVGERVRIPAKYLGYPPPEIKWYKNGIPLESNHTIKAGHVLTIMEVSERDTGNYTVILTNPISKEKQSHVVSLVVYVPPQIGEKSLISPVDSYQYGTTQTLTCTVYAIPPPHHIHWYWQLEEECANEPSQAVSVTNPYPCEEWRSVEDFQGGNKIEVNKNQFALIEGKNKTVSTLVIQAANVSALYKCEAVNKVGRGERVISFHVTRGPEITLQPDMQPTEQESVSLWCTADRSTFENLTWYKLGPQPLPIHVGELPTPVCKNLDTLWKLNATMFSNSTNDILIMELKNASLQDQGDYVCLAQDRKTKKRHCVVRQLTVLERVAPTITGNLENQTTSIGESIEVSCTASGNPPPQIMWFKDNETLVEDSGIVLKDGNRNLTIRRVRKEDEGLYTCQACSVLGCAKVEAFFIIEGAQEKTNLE

Binder	binding result [1]	binding result [2]
AFPRFGGDDYWIQQYLRYTD [phage isolate AFPRFGGDDYWIQQYLRYTD]	binds	
AFPRFGGDDYWIQQYLRYTF [phage isolate AFPRFGGDDYWIQQYLRYTF]	binds	
GWACAKWPWGGEICQPS [phage isolate GWACAKWPWGGEICQPS]		binds
YSHCIETSMENIWFCDFD [phage isolate YSHCIETSMENIWFCDFD]		binds
SGYCEFESDTGRWFCSSW [phage isolate SGYCEFESDTGRWFCSSW]		binds
WDDCIWHMWLKKKDCNSG [phage isolate WDDCIWHMWLKKKDCNSG]		binds
GGWCQLVDHSWWWCGDS [phage isolate GGWCQLVDHSWWWCGDS]		binds
DHMCRSPDYQDHVFCMYW [phage isolate DHMCRSPDYQDHVFCMYW]		binds
ASTCVFHDHPYFPMCQDN [phage isolate ASTCVFHDHPYFPMCQDN]		binds
FSVCWEYSWGGEVCLRQ [phage isolate FSVCWEYSWGGEVCLRQ]		binds
NSECGCPNMLHKEFCARH [phage isolate NSECGCPNMLHKEFCARH]		binds
PSNSWAAVWEDDMQRLMRQH [phage isolate PSNSWAAVWEDDMQRLMRQH]	binds	
WWECKREEYRNTTWCAWA [phage isolate WWECKREEYRNTTWCAWA]		binds
DWACDEYWSAYSVLCKHP [phage isolate DWACDEYWSAYSVLCKHP]		binds
NWECGWSNMFQKEFCARP [phage isolate NWECGWSNMFQKEFCARP]		binds
NWKCEYTQGYDYTECVYL [phage isolate NWKCEYTQGYDYTECVYL]		binds
PAQCWESNYQGIFFCDNP [phage isolate PAQCWESNYQGIFFCDNP]		binds
LGYCMYDYENRGWTCYPP (not fully specified; cysteine pairing not given here) [phage isolate LGYCMYDYENRGWTCYPP]		binds
PPLCYFVGTQEWHHCNPF [phage isolate PPLCYFVGTQEWHHCNPF]		binds
GWCQMDAQGIWSCWAD [phage isolate GWCQMDAQGIWSCWAD]		binds
YYQCQRYWDGKTWWCEYN [phage isolate YYQCQRYWDGKTWWCEYN]		binds
SRVCWEYSWGGQICLGY [phage isolate SRVCWEYSWGGQICLGY]		binds
YSDCLFQLWKGSVCPPS [phage isolate YSDCLFQLWKGSVCPPS]		binds
PPFCIYQEPSGQWWCYDH [phage isolate PPFCIYQEPSGQWWCYDH]		binds

Binder	binding result [1]	binding result [2]
PGWCDFSPQLGQWMCDWF [phage isolate PGWCDFSPQLGQWMCDWF]		binds
PFWCKFQQSKAMFPCSWF [phage isolate PFWCKFQQSKAMFPCSWF]		binds
LDNCIWNVWKGVQDCEYS [phage isolate LDNCIWNVWKGVQDCEYS]		binds
GSWCEMRQDVGKWNCFSD [phage isolate GSWCEMRQDVGKWNCFSD]		binds
RSWYLGPPYYEEWDPIPN [phage isolate RSWYLGPPYYEEWDPIPN]	binds	
PGHCEYIWIDEQPWCVRL [phage isolate PGHCEYIWIDEQPWCVRL]		binds
AGWCEYVAPQGAWRCFHN [phage isolate AGWCEYVAPQGAWRCFHN]		binds
YPGCYETSLSGVWFCADG [phage isolate YPGCYETSLSGVWFCADG]		binds
MPPGFSYWEQVVLHDDAQVL [phage isolate MPPGFSYWEQVVLHDDAQVL]	binds	
WYYDWFHNQRKPPSDWIDNL [phage isolate WYYDWFHNQRKPPSDWIDNL]	binds	
DSWCELEHQSGIWRCDFW [phage isolate DSWCELEHQSGIWRCDFW]		binds
LSLCYNDMHGWWEHCQWY [phage isolate LSLCYNDMHGWWEHCQWY]		binds
QVQYQFFLGTPRYEQWDLDK [phage isolate QVQYQFFLGTPRYEQWDLDK]	binds	
QVQYQFILGTPRYEQWDPDK [phage isolate QVQYQFILGTPRYEQWDPDK]	binds	
PDTCTMWGDSGRWYCFPA [phage isolate PDTCTMWGDSGRWYCFPA]		binds
NGSCWYDFGWETEICFHN [phage isolate NGSCWYDFGWETEICFHN]		binds
DRWCMLDQEKGWWLCGPP [phage isolate DRWCMLDQEKGWWLCGPP]		binds
DNWCEIVVEKGQWFCYGS [phage isolate DNWCEIVVEKGQWFCYGS]		binds
PRLGDDFEEAPPLEWWWAHF [phage isolate PRLGDDFEEAPPLEWWWAHF]	binds	
EPEGYAYWEVITLYHEEDGD [phage isolate EPEGYAYWEVITLYHEEDGD]	binds	
SDLCYNQSGWWELCYFD [phage isolate SDLCYNQSGWWELCYFD]		binds
GDYVYWEIIELTGATDHTPP [phage isolate GDYVYWEIIELTGATDHTPP]	binds	
RGDYQEQYWHQQLVEQLKLL [phage isolate RGDYQEQYWHQQLVEQLKLL]	binds	
SSVCFEYSWGGEVCFRY [phage isolate SSVCFEYSWGGEVCFRY]		binds
